Source: US7809428B2, “Devices for detection and therapy of atheromatous plaque” (The General Hospital Corporation, priority 2001, dated 2010)

Key:
[1] = tested on: aortic and iliac plaque of atherosclerotic rabbits; experiment: Intimal surface fluorescence by OMA-LIF system; assay type: in vivo, rabbit
Description: The second measurement of intimal surface fluorescence was made by the OMA-LIF system described above. At least 15 separate fluorescence measurements were taken from each artery segment. In addition, the iliac artery through which the balloon was passed also sustained an injury due to its relatively small diameter compared to aortic section 5 and, therefore, developed atherosclerosis compared to the uninjured iliac artery. […] Sections 3, 4 and injured iliac of atherosclerotic compared to normal control had p values<0.0001, while section 5 and uninjured iliacs had p values<0.0005. Accordingly, the less severe plaques of section 5 are distinguishable from the macrophage-rich plaques of sections 3 and 4.
In FIG. 14a, a marked contrast was seen between a large aortic plaque and an area of the abdominal aorta 5 mm beneath the plaque. In FIG. 14b, another marked contrast was seen between the balloon injured iliac artery and the contralateral normal artery in the same rabbit. […] These spectra were obtained in a rabbit that had received an overdose of anesthesia. […] By palpation of the outside of the artery, the position of the catheter in relation to plaques was determined Thus, a novel method has been developed for targeting a photosensitizer composition to the activated macrophages of a vulnerable plaque with high specificity.

[2] = tested on: aortic plaque of atherosclerotic rabbits; conditions: rabbit, in vivo
Method: For confocal fluorescence microscopy, selected parts of the aortas were snap frozen in liquid nitrogen and approximately 10-20 μm frozen sections were prepared. These sections underwent laser scanning confocal fluorescence microscopy to detect the tissue distribution of the ce6. The red intracellular fluorescence from ce6 together with green tissue auto-fluorescence was imaged in the cells in 10 μm frozen sections. Sections were examined with a laser scanning confocal fluorescence microscope. A Leica DMR confocal laser fluorescence microscope (Leica Mikroskopie und Systeme GmbH, Wetzler, Germany)(excitation 488 nm argon laser) and 4×−40× air immersion lens or a 100× oil immersion objective was used to image at a resolution of 1024×1024 pixels. […] These channels were overlaid using TCS NT software (Version 1.6.551, Leica Lasertechnik, Heidelberg, Germany) to allow visualization of overlap of red and green fluorescence. These sections were also stained by immunohistochemistry using macrophage specific monoclonal antibodies and conventional H&E staining. Other parts of normal and atherosclerotic aorta were cut into small pieces, weighed and dissolved in sodium hydroxide/SDS and the tissue content of ce6 was determined by spectrofluorimetry as previously described (Hamblin et al (2000) Br. J. Cancer 83:1544). […]

[3] = tested on: balloon-injured abdominal aorta plaque; experiment: In vivo photodynamic therapy of rabbit aorta through flowing blood
[4] = tested on: J774 or RAW264.7 mouse macrophage-like cells versus non-target EMT-6 cells; experiment: Cellular uptake of conjugates and free ce6; assay type: cell-based; conditions: J774 and EMT-6 cells
Method: J774.A1 (J774) and RAW 264.7 mouse macrophage-like cell lines, together with EMT-6 mouse mammary […] cells, were obtained from ATCC (Rockville, Md.). Cells were grown in RPMI 1640 media containing HEPES, glutamine, 10% fetal calf serum (FCS), 100 U/ml penicillin and 100 μg/ml streptomycin. They were passaged by washing with phosphate buffered saline (PBS) without Ca^2+ and Mg^2+ and by adding trypsin-EDTA to the plate for 10 minutes at 37° C.
For cellular uptake studies, cells were grown to approximately 90% confluency in twenty-four well plates and the conjugate or photosensitizer was added in about 1 ml medium containing approximately 10% serum to each well. […] The trypsin supernatant was checked for the presence of fluorescence to quantify any surface binding which might easily be removed by trypsin. The fluorescence was measured using an excitation wavelength of 400 nm and the emission scanned from 580 to 700 nm in order to calculate the peak area (λmax=664 nm). A series of dilutions in approximately 1.5 ml 0.1M NaOH/1% SDS of known concentrations of each separate conjugate and photosensitizer was scanned for fluorescence as above in order to prepare calibration curves to allow for quantitation of the ce6 by conversion of the measured peak areas into mol ce6 equivalent. […] Results were expressed as mol of ce6 per mg cell protein. […]

[5] = tested on: experimental atherosclerotic lesions of the aorta; assay type: in vivo, rabbit
Method: Male New Zealand White rabbits weighing 2.5-3.0 kg (Charles River Breeding Laboratories) were maintained on a 2% cholesterol-6% peanut oil diet (ICN) for 3 months. […] The femoral artery was then ligated, and the wound closed. The animals were allowed to recover from anesthesia and then returned to their cages.
Two to four millicuries of the ^99mTc-Ap4A-glucoheptonate, ^99mTc-AppCHClppA-glucoheptonate, or ^99mTc-glucoheptonate (control) was injected into marginal ear veins of groups of three rabbits with experimental atherosclerotic lesions. As a control, three unlesioned animals were injected with 2-4 mCi of ^99mTc-Ap4A-glucoheptonate. After radiopharmaceutical administration, serial gamma images were collected every minute for the first 5 minutes, every 2 minutes for the next 25 minutes, and every 5 minutes for the next 2.5 hours. In all of the rabbits, images were acquired in the anterior and lateral decubitus projections, including the heart and aorta, by using a standard field-of-view gamma camera (Series 100, Ohio Nuclear, Solon, Ohio) equipped with a high-resolution parallel-hole collimator and interfaced with a dedicated computer system (Technicare 560, Solon, Ohio). The pulse height analyzer was adjusted to record the 140 KeV photopeak of ^99mTc, and all images were recorded in a 256×256 matrix.
After acquiring the final images, the animals were sacrificed with an overdose of sodium pentobarbital. The aortas were removed, opened along the ventral surface, and mounted on styrofoam blocks. The aortas then were placed on the face of the gamma camera and ex vivo images were recorded for 10 minutes.

[6] = atherosclerotic rabbit, conjugate and light

Mal-BSA-ce6 was tested, and the “intimal surface fluorescence, atherosclerotic versus normal rabbit” value ([1]; arteries with inflamed plaque (sections 3, 4 and injured iliac, p<0.0001)) was “highly significant increases in fluorescence”, the “intimal surface fluorescence, atherosclerotic versus normal rabbit” value ([1]; sections 1 and 2) was “not significantly different” and the “extracted ce6 fluorescence per gram tissue, difference atherosclerotic versus normal rabbits” value [2] was “significant”. For the same substance, the “gross damage at necropsy in illuminated aortic section or surrounding tissue” value ([3]; atherosclerotic rabbit, 48 hours after PDT) was “no gross damage visible”, the “histological changes in the illuminated section” value [3, 6] was “evidence of apoptosis (pyknotic nuclei) and an inflammatory infiltrate in the plaque” and the “necrosis in the illuminated section (histology)” value [3, 6] was “some coagulative necrosis”. For the same substance, the “overall effect of treatment on plaque histology” value [3, 6] was “favorable modifications of plaque histology and reduced vulnerability”, the “gross damage at necropsy in surrounding tissue” value ([3]; normal rabbit, 48 hours after PDT) was “some minor damage visible in the paraaortic muscle” and the histological changes ([3]; normal rabbit, photosensitizer composition and light) was “Histological changes were not observed”. For the same substance, the “ill effects of treatment before sacrifice” value ([3]; two rabbits that received composition and light, two days) was “no ill effects”.
With chlorin e6 [ce6] the “uptake of unbound ce6 by receptor-positive and receptor-negative cells” value [4] was “indiscriminate uptake”.
For ^99mTc-glucoheptonate, the “clearance of radioactivity from all organs, t1/2s” value ([5]; rabbit, in vivo) was 5 to 10 min, the “organs in which radioactivity accumulated” value ([5]; rabbit, in vivo) was “accumulated in the kidneys and bladder” and the “accumulation of radioactivity in the aortic lesions” value ([5]; rabbits with experimental atherosclerosis) was “no evidence of specific accumulation in the aortic lesions”.
